# In PMC8867601, “The TERB1 MYB domain suppresses telomere erosion in meiotic prophase I”:
# T1: mTERB1-MYB (Mus musculus, UniProt Q8C0V1 707-760)
# T1 sequence: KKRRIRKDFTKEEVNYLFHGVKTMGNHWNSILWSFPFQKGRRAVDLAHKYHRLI
# T2: hTERB1-MYB (Homo sapiens, UniProt Q8NA31 666-719)
# T2 sequence: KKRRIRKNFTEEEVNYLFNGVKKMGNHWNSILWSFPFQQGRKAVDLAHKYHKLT
# Columns and labels:
# mTERB1-MYB [1] = molecular target: T1, mTERB1-MYB; assay: EMSA; 150 nM probe; 50 mM Tris-HCl pH 8.0, 6.5% glycerol, 20 mM NaCl, 5 mM DTT, 150 nM probe, 10 ul, 30 min on ice; 4-20% TBE native gel; conditions: protein: recombinant; tags: 6xHis (not cleaved); label: 32P (T4 PNK)
# hTERB1-MYB [2] = molecular target: T2, hTERB1-MYB; assay: as above; conditions: protein: recombinant; tags: none after Ulp1 cleavage of His-Smt3; label: 32P (T4 PNK)
# hTRF2-MYB = hTRF2-MYB (Homo sapiens, UniProt Q15554 488-542); assay: as above; conditions: protein: recombinant; tags: none after Ulp1 cleavage of 10xHis-Smt3; label: 32P (T4 PNK)
# hTRF2-MYB, sequence (Q15554 488-542): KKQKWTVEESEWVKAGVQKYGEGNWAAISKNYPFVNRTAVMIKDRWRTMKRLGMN
# mTERB1-MYB [3] = molecular target: T1, mTERB1-MYB; assay: EMSA; 2-8 uM protein, 150 nM probe; 50 mM Tris-HCl pH 8.0, 6.5% glycerol, 20 mM NaCl, 5 mM DTT, 150 nM probe, 10 ul, 30 min on ice; 4-20% TBE native gel; conditions: protein: recombinant; tags: 6xHis (not cleaved); label: 32P (T4 PNK)
# hTERB1-MYB [4] = molecular target: T2, hTERB1-MYB; assay: as above; conditions: protein: recombinant; tags: none after Ulp1 cleavage of His-Smt3; label: 32P (T4 PNK)
binder,measurement,setting,value
dsDNA_telo_8-mer (TTAGGG)8 (dsDNA) DNA 1: TTAGGGTTAGGGTTAGGGTTAGGGTTAGGGTTAGGGTTAGGGTTAGGG DNA 2: CCCTAACCCTAACCCTAACCCTAACCCTAACCCTAACCCTAACCCTAA,binding result,mTERB1-MYB [1],no binding
same,binding result,hTERB1-MYB [2],no binding
same,binding result,hTRF2-MYB,binds
dsDNA_scrambled_8-mer (dsDNA) DNA 1: GACAGCGATGAGAACTAATTCGTGTGCTTGCTGACTGATATCGTGACT DNA 2: AGTCACGATATCAGTCAGCAAGCACACGAATTAGTTCTCATCGCTGTC,binding result,mTERB1-MYB [3],no binding
same,binding result,hTERB1-MYB [4],no binding
